Measured values: patent US20240026019A1 (Innovent, published 2024)

T1: rh-TNFR2-His (recombinant human TNFR2, His tag) (human, UniProt P20333 23-257)
T1 construct: Soluble antigen of the ForteBio assay; not shown: His tag
T1 sequence (looked up): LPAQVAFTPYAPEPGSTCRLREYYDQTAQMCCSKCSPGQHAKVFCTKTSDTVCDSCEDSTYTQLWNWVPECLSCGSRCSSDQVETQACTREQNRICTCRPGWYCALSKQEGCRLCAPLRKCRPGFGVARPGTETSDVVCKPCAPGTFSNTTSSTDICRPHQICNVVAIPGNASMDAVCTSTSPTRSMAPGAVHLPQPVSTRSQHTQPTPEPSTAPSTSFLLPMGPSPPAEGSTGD

T2: CYNO-TNFR2-His (cynomolgus monkey TNFR2, His tag) (cynomolgus monkey, UniProt A0A2K5VET2 132-366)
T2 construct: Soluble antigen of the ForteBio assay; also called cTNFR2; not shown: His tag
T2 sequence: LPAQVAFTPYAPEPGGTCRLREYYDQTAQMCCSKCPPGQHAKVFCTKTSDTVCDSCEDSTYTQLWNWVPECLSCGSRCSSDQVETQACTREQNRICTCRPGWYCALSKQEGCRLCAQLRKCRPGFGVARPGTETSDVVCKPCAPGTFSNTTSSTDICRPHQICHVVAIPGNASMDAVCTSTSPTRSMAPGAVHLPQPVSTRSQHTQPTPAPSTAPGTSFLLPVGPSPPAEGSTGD

T3: hTNFR2 protein (coated on the microplate in the blocking ELISA) (human, UniProt P20333 23-257)
T3 construct: The construct coated in the ELISA is not described (it may or may not be the immunogen, Sino biological 10417-H03H)
T3 sequence (looked up): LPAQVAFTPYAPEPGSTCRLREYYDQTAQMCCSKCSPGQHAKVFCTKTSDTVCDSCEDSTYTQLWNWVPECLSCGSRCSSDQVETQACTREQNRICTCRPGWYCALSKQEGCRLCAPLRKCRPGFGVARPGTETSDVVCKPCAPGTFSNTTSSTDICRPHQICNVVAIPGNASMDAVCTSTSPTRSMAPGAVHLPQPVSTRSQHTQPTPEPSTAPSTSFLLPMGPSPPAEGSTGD


What was measured:
[1] = biological target: T1, rh-TNFR2-His (recombinant human TNFR2, …); experiment: BLI (ForteBio), antibody on sensor, 100 nM rh-TNFR2-His in solution, 1:1 model
Method: (§1) In the present invention, the equilibrium dissociation constant (KD) for the binding of the 3 exemplary chimeric antibodies of the present invention described above to human TNFR2 (hTNFR2), cynomolgus monkey TNFR2 (cTNFR2), murine TNFR2(mTNFR2), and human TNFR1(hTNFR1) was determined by biological optical interferometry (ForteBio). For comparison, the equilibrium dissociation constant (KD) of a positive control antibody OPI (humanized antibody SBT-002e in WO 2017083525, VH sequence of SEQ ID NO: 58, VL sequence of SEQ ID NO: 59) was determined.
(§2) The ForteBio affinity assay was performed according to the prior art (Estep, P, et al., High throughput solution based measurement of antibody-antigen affinity and epitope binning. MAbs, 2013.5(2): p. 270-278). Briefly, a sensor was equilibrated offline in an assay buffer for 30 min, and was equilibrated online for 60 s to establish a baseline. The purified antibodies obtained as described above were loaded online onto an AHQ sensor (ForteBio) for the ForteBio affinity assay. The sensor with the loaded antibodies was then exposed to each of 100 nM hTNFR2, cTNFR2, mTNFR2, and hTNFR1 antigens for 5 min before transferring the sensor to an assay buffer for 5 min of dissociation for dissociation rate measurement. The kinetic analysis was performed using a 1:1 binding model.

[2] = biological target: T2, CYNO-TNFR2-His (cynomolgus monkey …); experiment: BLI (ForteBio), antibody on sensor, 100 nM CYNO-TNFR2-His in solution, 1:1 model
Method: as §1, §2

[3] = biological target: T3, hTNFR2 protein (coated on the …); experiment: blocking ELISA: hTNFR2 coated on the plate, binding of biotinylated TNFα blocked by the antibody; the table row is headed EC50; unit taken from the axis log Conc nM
Method: The ability of the chimeric antibodies 3C4, 69B1, and 72G8 and the control antibody OPI to block the binding of human TNFα to hTNFR2 was assayed by ELISA.
(§3) The hTNFR2 protein was resuspended and dissolved to a concentration of 2 μg/mL with PBS, and a microplate was coated with the protein and incubated overnight. The plate was blocked with 5% BSA for 1 h, and a biotinylated antigen (Recombinant Biotinylated TNFα protein (ACRO)) was diluted to 2 μg/mL and added to the plate at 10 μL/well. The antibodies prepared as described above (3C4, 69B1, and 72G8) were each diluted in a gradient starting from the maximum concentration of 300 nM for a total of 8 or 12 dilution gradients. The diluted antibodies were added at 100 μL/well and incubated in PBS on ice for 30 min. The antigen-antibody mixture was incubated in a microplate for 90 min and washed three times with PBS, and the supernatant was discarded. 100 μL of Avidin-HRP (Invitrogen) diluted at a 1:5000 ratio was added to each well, incubated at room temperature for 30 min, and washed six times with PBS. A TMB chromogenic solution (solarbio) was added to the plate at 100 μL/well for color development for 1 min, and the reaction was stopped by adding a stop buffer (solarbio) at 100 μL/well. The plate was read on a microplate reader at OD₄₅₀ and OD₆₂₀.

[4] = biological target: T3, hTNFR2 protein (coated on the …); experiment: blocking ELISA: hTNFR2 coated on the plate, binding of biotinylated TNFα blocked by the antibody; unit taken from the axis Conc log(nM) [A]
Method: as §3
In a similar manner to that in Example 7, the ability of the humanized antibodies hz3C4.7, hz69b1.5, hz69b1.6, hz69b1.11, and hz69b1.20, and the control antibody OPI to block the binding of human TNFα to hTNFR2 was assayed by ELISA.

Binder | Kd [1] | koff [1] | kon [1] | Kd [2] | koff [2] | kon [2] | IC50 [3] | IC50 [4]
chimeric antibody 69B1 (antibody, human IgG1, kappa, V domains shown) VH: QIQLVQSGPELKKPGETVKISCKASGYTFTDYSMNWVKQAPGKGLKWMGWLNTETGEPIYADDFKGRFVFSLETSASTAYLEINNLNDEDTATYFCAREAIYYGTSYVLDYWGQGTSVTVSS VL: DIVLTQSPASLAVSLGQRATISCRASESVEYYGTNFMQWYQQKPGQPPKLLIYSASNVESGVPARFSGSGSGTDFSLNIHPVEEDDIAVYFCQQSRKDPSTFGEGTNLEIKR | 0.265 nM | 0.000519 s⁻¹ | 1.96e+06 M⁻¹ s⁻¹ | 1.11 nM | 0.00198 s⁻¹ | 1.79e+06 M⁻¹ s⁻¹ | 2.15 nM | 
positive control antibody OPI (humanized antibody SBT-002e in WO 2017083525) (antibody, V domains shown, also called Benchmark OPI) VH: QVTLKESGPALVKPTQTLTLTCTFSGFSLSTSGMGVGWIRQPPGKALEWLAHIWWDDDKFYNPSLKSRLTISKDTSKNQVVLTMTNMDPVDTATYYCARLTGTRYFDYWGQGTTVTVSS VL: DVQMTQSPSSLSASVGDRVTITCKASQDINKFIAWYQQKPGKAPKLLIHYTSTLQPGIPSRFSGSGSGRDYTFTISSLQPEDIATYYCLQYGNLWTFGGGTKVEIK | 4.18 nM | 0.000229 s⁻¹ | 54800 M⁻¹ s⁻¹ | 1.15 nM | 0.000328 s⁻¹ | 284000 M⁻¹ s⁻¹ | 4.56 nM | 38.2 nM
chimeric antibody 3C4 (antibody, human IgG1, kappa, V domains shown) VH: QVQLQQSGPELVKPGASVTISCKASDYSFTNYYIHWVKQRPGQGLEWIGWIYPGNVITKYHEKFKGKAILTADTSSTTAYMQLNSLTSEDSAVYFCARSRATGYFDYWGQGTTLTVSS VL: DIQMTQTTSSLSASLGDRVTISCRASQDIRNYLNWFQQKPDGTIKLLIYYTSRLHSGVPSRFSGSGSGTDYSLTISNLEQEDMATYFCQQFNTLPWTFGGGTKLEIKR | 1.36 nM | 0.00176 s⁻¹ | 1.29e+06 M⁻¹ s⁻¹ | 1.42 nM | 0.00201 s⁻¹ | 1.41e+06 M⁻¹ s⁻¹ | 3.11 nM | 24.2 nM
